Test results reported in paper doi:10.1101/2024.12.01.621710 (bioRxiv, 2024).
“And” between values parts separate entries of the source, which are not always exact repeats. Equal values may be shown once. Read-outs that look alike come from different tables or passages of the source.

Tests used:
[1] = biological target: MBP-InaC C-ter (Chlamydia trachomatis serovar L2 (LGV 434/Bu)); experiment: SEC + other: mass photometry
[2] = biological target: MBP-IncA C-ter (Chlamydia trachomatis serovar L2 (LGV 434/Bu)); experiment: SEC + other: mass photometry
[3] = biological target: MBP-IPAM C-ter (Chlamydia trachomatis serovar L2 (LGV 434/Bu)); experiment: SEC + other: mass photometry
[4] = biological target: the molecule itself
[5] = biological target: the molecule itself; experiment: SEC + other: mass photometry

MBP-InaC C-ter (domain or fragment)
stoichiometry N [1]: 2 and 3

MBP-IncA C-ter (domain or fragment)
stoichiometry N [2]: 4

MBP-IPAM C-ter (domain or fragment)
stoichiometry N [3]: 2 and 3

B1: MBP-CpoS C-ter (domain or fragment)
chain: ARARSRRVEIERQLEVVSMQIEELEEEYKALSEVYRANLEARRAVSKYCQELEEKILDLCKRHAATICSIEEDAKQEIRHQTERFKQRLQQNQNTCSQLTAELCKLRSENKALSERLQVQASRRKK
stoichiometry N [4]: 2 | stoichiometry N [5]: 4 and 8
